Data reported in publication PMC9103184, “Kunitz-Type Peptides from Sea Anemones Protect Neuronal Cells against Parkinson’s Disease Inductors via Inhibition of ROS Production and ATP-Induced P2X7 Receptor Activation” (International Journal of Molecular Sciences, 2022).

How the values were obtained:
[1] = system: serine proteinases; conditions: cited from earlier work
Excerpt: A new peptide, HCIQ1c9, with Gly17Arg at position P1’ of the reactive site was also found in a combinatorial library of H. crispa Kunitz-type peptides and produced in E. coli. Thus, in this work four isoforms of Kunitz-type peptides with point a.a. substitutions were studied in various in vitro models.

[2] = CD spectroscopy, secondary structural elements (Provencher–Glockner); format: physicochemical; set-up: unit not given here; conditions: deionized water, Provencher–Glockner method
Excerpt: To calculate secondary structural elements of peptides, circular dichroism (CD) spectroscopy was applied. CD spectroscopy is a fast, well-established, and widely used analytical technique to study secondary structures of proteins and their changes in different environments. According to Figure 3, all spectra in the far UV region (190–240 nm) have similar profiles and are characterized by a positive maximum peak at 193 nm and negative minimum peaks at 202 and 225 nm. […] The peptides have an approximately equal content of secondary structural elements, while a slight increase in α-helixes and decrease in β-structure were found in HCIQ1c9 (Table 1), which might be reflected in the spatial structure and biological activity of the peptide.
(§1) Circular dichroism (CD) spectra were recorded on a Chirascan-Plus CD spectropolarimeter (Applied Photophysics, Leatherhead, UK) in quartz cuvettes with an optical path length of 0.1 cm for the peptide spectrum region. The peptides were dissolved in deionized water ([…]) and incubated at temperatures ranging from 25 °C to 100 °C for 20–25 min before recording the CD spectra. The secondary structure elements were calculated using the Provencher–Glockner method using advanced Provencher calculation programs from the CDPro software package (Leatherhead, UK).

[3] = Thermal stability by CD spectroscopy; format: physicochemical
Description: Figure 5 Evaluation of the thermal stability of peptides in deionized water via CD spectroscopy. Recordings of the CD spectra of HCIQ2c1 (a), HMIQ3c1 (b), HCIQ4c7 (c), and HCIQ1c9 (d) were conducted in the far UV region (190–240 nm) after the solutions were incubated over a temperature range from 25 °C to 100 °C for 20–25 min.
as §1

[4] = system: Neuro-2a cells; assay: Paraquat-induced toxicity, cell viability (MTT); format: cell-based, murine; conditions: peptide up to 10 μM, 600 μM paraquat, 24 h
Description: The murine neuroblastoma cell line Neuro-2a was purchased from ATCC (CCL-131, American Type Culture Collection, Manassas, VA, USA). Cells were cultured in Dulbecco’s modified Eagle’s medium (DMEM) (Biolot, St. Petersburg, Russia) containing 10% fetal bovine serum (Biolot, St. Petersburg, Russia) and 1% penicillin/streptomycin (Biolot, St. Petersburg, Russia) according to ATCC’s instruction. Cells were incubated at 37 °C in a humidified atmosphere containing 5% CO2 (v/v). Before the experiments, Neuro-2a cells at a concentration of 1 × 10^4 cells/well were dispensed into 96-well plates and incubated for 24 h in a humidified atmosphere containing 5% CO2 to allow cell attachment.
Then, 20 μL of substance solution was loaded into the cells and incubated for 24 h followed by replacement of the medium with tested substances and 100 μL of fresh medium. Then, 10 μL of MTT (3-(4,5-dimethylthiazol-2-yl)-2,5- diphenyltetrazolium bromide) (Sigma-Aldrich, St. Louis, MO, USA) stock solution (5 mg/mL) was added to each well and the microplate was incubated for 4 h. […] The absorbance of the converted dye formazan was measured using a Multiskan FC microplate photometer (Thermo Scientific, Waltham, MA, USA) at a wavelength of 570 nm. […] Cytotoxic activity was expressed as the percentage of cell viability. […]

HCIQ2c1: recombinant Kunitz-type peptide from Heteractis crispa, UniProtKB ID A0A6B7FBD3 (IQGNICSEPKKVGRCRGSFPRFYFDSETGKCTPFIYGGCGGNGNNFETLHACRAICRA; UniProt A0A6B7FBD3 28-85, looked up)
interaction with serine proteinases [1]: interact with several serine proteinases, including inflammatory ones
Unordered Structure [2]: 35.7
β-Turn [2]: 19.0
α-Helix II ([2]; irregular structure): 13.9
β-Structure II ([2]; irregular structure): 6.9
β-Structure I ([2]; regular structure): 17.4
α-Helix I ([2]; regular structure, far UV 190–240 nm): 7.1
α-Helix III ([2]; summary value): 21.0
β-Structure III ([2]; summary value): 24.3
CD spectral change on further heating ([3]; 100 °C, deionized water, 20–25 min): decreased positive peaks at 193 nm
thermostability: retains conformation and biological activity until ([3]; CD spectra and residual trypsin-inhibitory activity): 90–100 °C
CD spectrum: no significant changes after heating until ([3]; deionized water, 25–100 °C for 20–25 min, 190–240 nm): 90 °C
influence on viability of paraquat-treated cells [4]: did not influence the viability
